One test concerns the target BG505-SOSIP (UniProt Q2N0S6).
The next test has as its target VRC01gl Fab with G107aL. In words: dynamic light scattering.
Test [1] addresses VRC01gl Fab with comL ('VQ' insertion at 103aL and 103bL, L104VL, E105DL). In words: dynamic light scattering.

Take 3BNC131 Fab H:Q39L: in the test with BG505-SOSIP, the equilibrium dissociation constant (Kd) worked out at 21.2 nM, the koff was determined as 0.00095 s⁻¹ and the kon amounted to 44800 M⁻¹ s⁻¹.

As to VRC01gl Fab with G107aL, the stoichiometry N with VRC01gl Fab with G107aL was 2.

Take N6 Fab L:H38Q: in the test with BG505-SOSIP, the dissociation constant (Kd) was determined as 0.0781 nM, the off-rate (koff) turned out to be 6.04e-06 s⁻¹ and the kon was found to be 76800 M⁻¹ s⁻¹.

On to “VRC01gl Fab with comL ('VQ' insertion at 103aL and 103bL, L104VL, E105DL)”, for which, in test [1], the stoichiometry N is 4.

The values are drawn from paper PMC8761896.
